# Biological target: the molecule itself
# Assay: AUC
row,Protein,stoichiometry N
1,"TBC1D4 CTR (TBC1D4 1192-1299) with His6-tag (domain or fragment, human, UniProt O60343 1192-1298, looked up) SCEDSETLEKLERANSQLKRQNMDLLEKLQVAHTKIQALESNLENLLTRETKMKSLIRTLEQEKMAYQKTVEQLRKLLPADALVNCDLLLRDLNCNPNNKAKIGNKP",2
2,"TBC1D4 RabGAP-CTR1 (TBC1D4 865-1299) with His6-tag (domain or fragment, human, UniProt O60343 865-1298, looked up) ASRDELQSRKVKLDYEEVGACQKEVLITWDKKLLNCRAKIRCDMEDIHTLLKEGVPKSRRGEIWQFLALQYRLRHRLPNKQQPPDISYKELLKQLTAQQHAILVDLGRTFPTHPYFSVQLGPGQLSLFNLLKAYSLLDKEVGYCQGISFVAGVLLLHMSEEQAFEMLKFLMYDLGFRKQYRPDMMSLQIQMYQLSRLLHDYHRDLYNHLEENEISPSLYAAPWFLTLFASQFSLGFVARVFDIIFLQGTEVIFKVALSLLSSQETLIMECESFENIVEFLKNTLPDMNTSEMEKIITQVFEMDISKQLHAYEVEYHVLQDELQESSYSCEDSETLEKLERANSQLKRQNMDLLEKLQVAHTKIQALESNLENLLTRETKMKSLIRTLEQEKMAYQKTVEQLRKLLPADALVNCDLLLRDLNCNPNNKAKIGNKP",2
